# Where no end group is shown, it is not given here. [ ]: non-standard residue; d: D form. sY = N[C@@H](Cc1ccc(OS(=O)(=O)O)cc1)C(=O)O
# T1: CCR3 peptide Su16 8-23 (Homo sapiens, UniProt P51677)
# T1 chain: VETFGTTS[sY]YDDVGLL
# T2: CCR3 peptide Su0 8-23 (Homo sapiens, UniProt P51677)
# T2 chain: VETFGTTSYYDDVGLL
# T3: CCR3 peptide Su17 8-23 (Homo sapiens, UniProt P51677)
# T3 chain: VETFGTTSY[sY]DDVGLL
# Columns and labels:
# Experiment in all cases: NMR
# CCR3 peptide Su16 8-23 = molecular target: T1, CCR3 peptide Su16 8-23
# CCR3 peptide Su0 8-23 = molecular target: T2, CCR3 peptide Su0 8-23
# CCR3 peptide Su17 8-23 = molecular target: T3, CCR3 peptide Su17 8-23
binder,measurement,setting,value
eotaxin (protein) not shown,Kd,CCR3 peptide Su16 8-23,< 5 µM
same,Kd,CCR3 peptide Su0 8-23,140 µM
same,Kd,CCR3 peptide Su17 8-23,22 µM

# Reference: publication PMC2678197 (2009)
